According to US10668049B2, “Methods of treating cognitive decline with transforming growth factor beta inhibitors” (The Regents of the University of California, priority 2008, dated 2020):

What was measured:
TGF-β signaling pathway = assay: Microarray and real-time RT-PCR gene expression after in vivo albumin with or without TGF-βR blockers; design: species or system rat; conditions: albumin alone, 24 hours
Protocol: All experimental procedures were approved by the ethical committees dealing with experiments on animals at Charité University Medicine, Berlin and Ben-Gurion University of the Negev, Beer-Sheva. The in vivo experiments were performed as previously described (ivens et al., 2007; Seiffert et al., 2004). Adult male Wistar rats were treated with artificial cerebrospinal fluid (aCSF, composition in mM: 129 NaCl, 21 NaHCO3, 1.25 NaH2PO4, 1.8 MgSO4, 1.6 CaCl2, 3 KCl, 10 glucose) supplemented with deoxycholic acid (DOC, 2 mM, Sigma-Aldrich, Steinheim, Germany), bovine serum albumin (BSA, 0.1 mM. Merck, Darmstadt, Germany) corresponding to 25% of serum albumin concentration, or with TGF-β1 (10 ng/ml, Peprotech, Rocky Hill, N.J.). Sham-operated animals (perfused with aCSF) served as controls. […]
Total RNA was isolated using the TRIzol reagent (Invitrogen. Carlsbad, Calif.) and prepared using the Affymetrix GeneChip one-cycle target labeling kit (Affymetrix, Santa Clara, Calif.). […] Pairwise Pearson correlation coefficients for the three treatments were determined with Excel (Microsoft Corp., Richmond, Wash.). […]
mRNA expression levels were determined by quantitative reverse transcriptase-PCR by real-time kinetic analysis with an iQ5 detection system (Bio-Rad, Hercules, Calif.). Real-time PCR data were analyzed using the PCR Miner program (Zhao and Fernald, 2005). […]

[1] = biological target: T1, astrocyte specific glutamate transporter, SLC1A2 (Rattus norvegicus, UniProt P31596); assay: Whole cell patch recording of NMDA-mediated EPSCs in cortical pyramidal neurons; type: cell-based
T1 construct: In vitro intracellular recordings were obtained from pyramidal neurons (layer 2-3) 23-28 h following the in vivo treatment; from tissue; host or cells: acute rat neocortical slices (astrocytic transporter; recordings from layer 2-3 pyramidal neurons)
T1 sequence (P31596 whole entry): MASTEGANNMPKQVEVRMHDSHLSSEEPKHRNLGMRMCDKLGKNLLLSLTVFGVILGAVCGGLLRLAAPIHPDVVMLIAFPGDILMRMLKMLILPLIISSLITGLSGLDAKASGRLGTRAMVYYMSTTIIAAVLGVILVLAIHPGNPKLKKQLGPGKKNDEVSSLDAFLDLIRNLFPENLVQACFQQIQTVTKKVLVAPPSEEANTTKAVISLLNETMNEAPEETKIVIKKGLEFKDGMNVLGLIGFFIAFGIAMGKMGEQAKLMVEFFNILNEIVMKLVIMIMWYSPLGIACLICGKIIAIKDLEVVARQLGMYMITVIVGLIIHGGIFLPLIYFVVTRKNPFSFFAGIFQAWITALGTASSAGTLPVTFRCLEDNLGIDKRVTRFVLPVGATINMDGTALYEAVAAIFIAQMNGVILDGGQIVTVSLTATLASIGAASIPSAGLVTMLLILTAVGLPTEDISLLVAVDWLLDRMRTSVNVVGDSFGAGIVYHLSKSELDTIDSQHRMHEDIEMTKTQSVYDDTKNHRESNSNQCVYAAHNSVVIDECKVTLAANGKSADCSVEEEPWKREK
Protocol: In vitro intracellular recordings were obtained from pyramidal neurons (layer 2-3) 23-28 h following the in vivo treatment with albumin or from control rats. Currents were recorded using the whole cell patch configuration, as described previously (Pavlovsky et al., 2003). In brief, glass pipettes were pulled from capillaries using a vertical puller (Narashige, Greenvale, N.Y.) and filled with a solution comprising (in mM): 150 CsCl, 1 MgCl2, 10 HEPES, 4 Na2ATP, 0.1 CaCl2, and 1.1 mM EGTA, pH adjusted to 7.2 with a final osmolarity of 290-310 mOsm. Cells were visualized using infrared differential interference phase contrast video-microscopy. Recordings were performed using AxoPatch 700B (Axon Instruments, Foster City, Calif.), digitized at 10 kHz and recorded using pClamp 9.2 (Axon Instruments, Foster City, Calif.). Patch pipette's resistance was 4-5 MΩ. Series resistance was not electronically compensated; however, cells in which series resistance varied by more than 25% were excluded from the analysis. Stimulation protocols were started at least 5 min following impalement to allow intracellular dialysis with the pipette solution. Excitatory post-synaptic currents (EPSCs) were evoked—using a bipolar stimulating electrode positioned <200 μm from the recorded cell—at 75% of the intensity producing maximal EPSCs. N-methyl-D-aspartic acid (NMDA) currents were recorded in the presence of blockers of α-amino-3-hydroxy-5-methyl-4-isoxazole-propionic acid (AMPA)/kainate (i.e., 30 μM CNQX) and of gamma-aminobutyric acid A (GABAA) receptors (i.e., 10 μM bicuculine methiodide). Cells were voltage clamped to +40 mV to alleviate NMDA receptor blockade and inactivate fast Na^+ currents. In some experiments, dihydrokainic acid (DHK, Tocris, Bristol, UK), 100 μM, was added to the extracellular solution to selectively block the astrocyte specific glutamate transporter, SLC1A2 (see Arriza et al., 1994).
To confirm that the transcriptional changes induced by albumin were associated with altered cellular functions, the clearance of extracellular glutamate and potassium in cortical slices 24 hours following albumin treatment in vivo was investigated. To measure synaptic glutamate levels during neuronal activation, the slowly inactivating (Lester et al., 1990) NMDA currents in cortical neurons were recorded by using the whole-cell patch configuration (in the presence of non-NMDA glutamate and GABA receptor blockers, see Methods). Cells were clamped at +40 mV to prevent a potential confounding effect of post-synaptic depolarization due to the accumulation of synaptic [K^+]o. […] Synaptic glutamate elicited by 50 extracellular stimulations at 2, 5, 10, 20, 50 and 100 Hz before and after adding the astrocytic SLC1A2 specific inhibitor, DHK was measured. In neurons from control animals, DHK had no effect on single EPSCs or EPSCs elicited at low stimulation frequencies (<20 Hz). […] The same experiments were then repeated 24 h following cortical application of albumin (i.e. during epileptogenesis). In contrast to the control experiments, DHK had no effect on EPSC amplitude in treated slices (FIG. 13b-c, right), supporting reduced expression of the astrocytic transporter SLC1A2.

[2] = 24 h following albumin treatment in vivo, clamped at +40 mV

Substance: albumin: bovine serum albumin, used to induce epileptogenesis
- NF-kappaB cascade, Jak-Stat cascade, and MAPKKK cascade expression (TGF-β signaling pathway): upregulated
- Mean single EPSC amplitude [1, 2]: 505±100 pA
- Mean single EPSC rise-time [1, 2]: 14.5 ± 0.5 ms
- EPSC amplitude on repetitive stimulation, compared to controls ([1]; 24 h following cortical application of albumin): stronger depression
